Data taken from US6884600B1, “Protein phosphatase-1 catalytic subunit interactions” (Medical Research Council London, priority 1996, dated 2005).

Assays:
M21 subunit = assay: Far Western blotting: interaction with the M21 subunit; type: binding, chicken; settings: probe 0.2 μg/ml
Protocol: A) PP1M 5 μg (track 1), 10 μg bacterial extract containing M110-(R714-I1004) (track 2), MBP-M110-(R714-I004) 1 μg (track 3), MBP-M110-(R714-L934) 1 μg (track 4), MBP-M110-(K933-I1004) 1 μg (track 5), MBP 1 μg (track 6), M110-(M1-E309) 2 μg (lane 7) and M110-(M1-S477) 2 μg (track 8) were run on a 12% SDS/polyacrylamide gel and stained with Coomassie Blue. B) same as A) except that 10-fold less protein was electrophoresed and after transfer to nitrocellulose the proteins were probed with digoxigenin-labelled M21 subunit (0.2 μg/ml). C) same as B) except that, after electrophoresis, the proteins were transferred to nitrocellulose and probed with digoxigenin-labelled M21-(M1-L146) (0.2 μg/ml).
A) GST-M21 5 μg (track 1), M21 5 μg (track 2), M21-(M1-L146) 5 μg (track 3), M21-(M1-E110) 20 μg (track 4) and M21-(E110-K186) 5 μg (track 5) were run on 16.5% polyacrylamide gels and stained with Coomassie Blue. The marker proteins ovalbumin (43 kDa) and carbonic anhydrase (29 kDa) are indicated. B) GST-M21 0.5 μg (track 1), M21 0.5 μg (track 2), M21-M1-L146) 0.5 μg (track 3), M21-(M1-E110) 5 μg (track 4) and M21-(E110-K186) 5 μg (track 5) were electrophoresed as in A) and after transfer to nitrocellulose the blots were probed with digoxigenin-labelled MBP-M110-(K933-I1004) (0.2 μg/Ml). C) same as B) except that, after electrophoresis, the proteins were transferred to nitrocellulose and probed with digoxigenin-labelled M21 subunit (0.2 μg/ml).
PP1M (0.5 μAg) was electrophoresed on a 12% SDS/polyacrylamide gel, transferred to nitrocellulose and probed with digoxigenin-labelled M21 subunit (0.2 μg/ml) (track 1) or digoxigenin-labelled M21-(M1-L146) (0.2 μg/ml) (track 2). The positions of the M110 subunit, the M21 subunit and PP1c are marked.
Proteins were labelled with digoxigenin and Far Western analyses carried out as described, except that the digoxigenin-labelled probe was used at a concentration of 0.2 μg/ml instead of 2 μg/ml. SDS/polyacrylamide gel electrophoresis was carried out on 7.5-15% gels according to Laemmli and on 16.5% gels according to Schagger and von Jagow. Protein was estimated according to Bradford.

myosin = biological target: T1, myosin (Gallus gallus, UniProt P10587); assay: Myosin binding assay (pelleting with myosin); design: species or system chicken; settings: myosin 1 μM, 15 min 0° C.
T1 construct: from tissue; host or cells: chicken gizzard
Protocol: The PP1 catalytic subunit (PP1c), PP1M, or PP1M lacking the M21 subunit, PP1M(ΔM21), each at 30 nM, were incubated for 15 min at 0° C. with 1 μM myosin and centrifuged (see Methods of Example 3). […] The results shown are the average (±S.E.M.) for three separate experiments each assayed in duplicate.
(A); PP1M, M110-(M1-S477) and GST-M110-(M377-K976), each at 30 nM were incubated for 15 min at 0° C. with 1 μM myosin and centrifuged. The supernatants (S), resuspended pellets (P) and the suspension before centrifugation (T, total) were electrophoresed on 12% SDS/polyacrylamide gels, transferred to nitrocellulose and immunoblotted with antibodies raised against the PP1M holoenzyme. No protein was pelleted in the absence of myosin (not shown). The positions of the marker proteins myosin heavy chain (200 kDa), glycogen phosphorylase (97 kDa), bovine serum albumin (66 kDa), ovalbumin (43 kDa), carbonic anhydrase (29 kDa) and soybean trypsin inhibitor (20 kDa) are indicated. (B) The experiments were carried out as in (A), except that the M110 fragments and M21 subunit were used at 100 nM, the 8.5 kDa M110-(K933-I1004) fragment was electrophoresed on a 16.5% polyacrylamide gel and immunoblotting was carried out with affinity purified antibodies (see Methods). A small amount of M110-(R714-I1004) pelleted in the absence of myosin. […] No other protein was pelleted in the absence of myosin.
(A); Myosin (1 μM) was mixed with 50 μM, 20 μM or 10 μM M21 subunit to give the molar ratios M21:myosin dimer indicated. After 15 min at 0° C., the solutions were centrifuged and the supernatants (S), resuspended pellets (P) and the suspension before centrifugation (T, total) were electrophoresed on 12% SDS/polyacrylamide gels and stained with Coomassie blue. The positions of the myosin heavy chain (MHC) and the M21 subunit are indicated. The myosin light chains migrate faster than the M21 subunit and are not visible at these loadings.
Myosin binding assays. Myosin (0.5 mg/ml, 1 μM in terms of myosin heavy chains) in 10 mM Hepes pH 7.5, 50 mM KCl, 5 mM MgCl2, 0.1% (by vol) 2-mercaptoethanol, was mixed with PP1M, M21 subunit, or fragments of the M110 and M21 subunits, at the concentrations indicated in figure legends. After incubation for 15 min at 0° C., the solutions were centrifuged for 2 min at 13,000×g, the supernatants removed, and the pellets washed twice in 10 mM Hepes pH 7.5, 50 mM KCl, 5 mM MgCl2, 0.1% (by vol) 2-mercaptoethanol before resuspension in 50 mM Tris-HCl pH 7.5, 0.1 mM EGTA, 0.03% (by mass) Brij 35, 0.6 M NaCl, 0.1% (by vol) 2-mercaptoethanol. Aliquots of the supernatant, the resuspended pellet and the suspension before centrifugation were either assayed for myosin P-light chain phosphatase activity or denatured in SDS and analysed by SDS/polyacrylamide gel electrophoresis.

T1 sequence (P10587 whole entry): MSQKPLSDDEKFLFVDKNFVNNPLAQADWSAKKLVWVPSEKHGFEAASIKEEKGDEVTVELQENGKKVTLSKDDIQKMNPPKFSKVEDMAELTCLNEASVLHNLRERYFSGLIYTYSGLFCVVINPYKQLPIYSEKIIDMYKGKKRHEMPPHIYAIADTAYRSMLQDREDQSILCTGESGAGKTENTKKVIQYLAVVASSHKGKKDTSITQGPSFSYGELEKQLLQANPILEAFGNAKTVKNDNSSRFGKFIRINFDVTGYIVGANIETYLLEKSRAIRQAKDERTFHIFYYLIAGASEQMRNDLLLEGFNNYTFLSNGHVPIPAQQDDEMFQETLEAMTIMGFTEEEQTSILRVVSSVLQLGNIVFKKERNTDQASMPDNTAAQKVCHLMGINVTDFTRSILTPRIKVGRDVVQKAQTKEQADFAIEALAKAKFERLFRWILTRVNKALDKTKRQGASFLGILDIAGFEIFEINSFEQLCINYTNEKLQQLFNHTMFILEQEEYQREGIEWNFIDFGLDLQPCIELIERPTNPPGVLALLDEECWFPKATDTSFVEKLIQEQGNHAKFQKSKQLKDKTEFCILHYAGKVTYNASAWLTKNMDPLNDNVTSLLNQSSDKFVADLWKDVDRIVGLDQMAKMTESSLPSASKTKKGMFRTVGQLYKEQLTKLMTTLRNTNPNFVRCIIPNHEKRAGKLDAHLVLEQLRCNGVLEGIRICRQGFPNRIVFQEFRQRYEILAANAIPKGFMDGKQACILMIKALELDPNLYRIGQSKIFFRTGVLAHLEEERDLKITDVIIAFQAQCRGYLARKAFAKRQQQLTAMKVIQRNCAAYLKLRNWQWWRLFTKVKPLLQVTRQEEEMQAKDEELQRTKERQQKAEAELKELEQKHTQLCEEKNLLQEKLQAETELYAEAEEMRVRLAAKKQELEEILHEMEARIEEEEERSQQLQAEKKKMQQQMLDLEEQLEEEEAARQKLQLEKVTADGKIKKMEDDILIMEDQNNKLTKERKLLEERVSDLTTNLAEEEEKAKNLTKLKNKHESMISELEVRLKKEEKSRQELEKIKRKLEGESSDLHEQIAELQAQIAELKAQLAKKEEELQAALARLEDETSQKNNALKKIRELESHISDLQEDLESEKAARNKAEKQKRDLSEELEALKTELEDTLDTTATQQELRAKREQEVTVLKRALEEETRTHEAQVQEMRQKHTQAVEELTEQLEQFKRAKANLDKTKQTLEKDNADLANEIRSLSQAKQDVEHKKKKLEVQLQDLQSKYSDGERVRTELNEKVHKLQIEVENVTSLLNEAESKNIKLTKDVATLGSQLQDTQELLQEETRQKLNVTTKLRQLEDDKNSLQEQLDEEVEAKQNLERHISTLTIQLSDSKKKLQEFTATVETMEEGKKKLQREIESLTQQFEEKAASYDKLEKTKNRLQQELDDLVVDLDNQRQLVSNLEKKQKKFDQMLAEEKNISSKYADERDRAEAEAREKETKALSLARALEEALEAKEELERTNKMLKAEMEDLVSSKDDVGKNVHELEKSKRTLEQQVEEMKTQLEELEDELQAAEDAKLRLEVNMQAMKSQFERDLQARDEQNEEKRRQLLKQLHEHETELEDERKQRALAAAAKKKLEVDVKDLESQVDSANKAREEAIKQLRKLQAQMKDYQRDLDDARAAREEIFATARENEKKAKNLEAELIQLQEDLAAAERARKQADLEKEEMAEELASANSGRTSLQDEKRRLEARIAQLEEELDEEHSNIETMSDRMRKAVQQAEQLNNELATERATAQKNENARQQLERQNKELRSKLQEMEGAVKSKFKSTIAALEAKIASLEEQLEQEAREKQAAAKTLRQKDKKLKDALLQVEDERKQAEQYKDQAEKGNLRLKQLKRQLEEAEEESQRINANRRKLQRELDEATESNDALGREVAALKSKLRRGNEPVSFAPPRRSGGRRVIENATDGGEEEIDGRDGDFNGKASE
T1 sequence (P02612 whole entry partner): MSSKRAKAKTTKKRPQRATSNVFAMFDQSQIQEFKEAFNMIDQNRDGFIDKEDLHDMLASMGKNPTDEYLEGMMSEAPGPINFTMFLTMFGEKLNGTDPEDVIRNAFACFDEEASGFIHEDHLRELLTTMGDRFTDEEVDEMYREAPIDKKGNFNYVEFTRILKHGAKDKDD
T1 sequence (P02607 whole entry partner): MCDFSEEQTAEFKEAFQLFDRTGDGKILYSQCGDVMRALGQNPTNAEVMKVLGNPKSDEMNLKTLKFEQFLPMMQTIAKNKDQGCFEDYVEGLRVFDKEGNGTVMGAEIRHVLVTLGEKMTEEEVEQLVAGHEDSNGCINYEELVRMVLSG

Molecule | binding to myosin (myosin) | recognised by digoxigenin-labelled M21 subunit in Far Western blotting (M21 subunit)
M110-(R714-I1004): C-terminal 291 residues of the chicken gizzard M110 subunit (protein) RSTRTREQENEEKEKEEKEKQDKEKQEEKKESETKDDDYRQRYSRTVEEPYHRYRPTSTSTSTSSTSSLSTSTSSLSSSSQLNRPNSLIGITSAYSRSGTKESEREGGKKEEEKEEDKSQPKSIRERRRPREKRRSTGVSFWTQDSDENEQEHQSDSEEGTNKKETQSDSLSRYDTGSLSVSSGDRYDSAQGRSGSQSYLEDRKPYCSRLEKEDSTDFKKLYEQILAENEKLKAQLHDTNMELTDLKLQLEKTTQRQERFADRSLLEMEKRVSGKSQYLLGGKKSSRKKDI | bound to myosin | recognised
M110-(K933-I1004): C-terminal 72 residues of the chicken gizzard M110 subunit (protein, UniProt Q90623 933-1004, looked up, fragment) KLYEQILAENEKLKAQLHDTNMELTDLKLQLEKTTQRQERFADRSLLEMEKRVSGKSQYLLGGKKSSRKKDI | did not bind to myosin | recognised

The next lines start with results.

binding to myosin (myosin) | Molecule | recognised by digoxigenin-labelled M21 subunit in Far Western blotting (M21 subunit)
did not bind to myosin | M110-(M1-S477): rat aorta M110 fragment, residues 1-477, GST tag removed (protein, UniProt Q10728 1-477, looked up, fragment) MKMADAKQKRNEQLKRWIGSETDLEPPVVKRQKTKVKFDDGAVFLAACSSGDTDEVLKLLHRGADINYANVDGLTALHQACIDDNVDMVKFLVENGANINQPDNEGWIPLHAAASCGYLDIAEFLIGQGAHVGAVNSEGDTPLDIAEEEAMEELLQNEVNRQGVDIEAARKEEERIMLRDARQWLNSGHISDVRHAKSGGTALHVAAAKGYTEVLKLLIQAGYDVNIKDYDGWTPLHAAAHWGKEEACRILVDNLCDMETVNKVGQTAFDVADEDILGYLEELQKKQNLLHSEKRDKKSPLIESTANMENNQPQKTFKNKETLIIEPEKNASRIESLEQEKADEEEEGKKDESSCSSEEDEEDDSESEAETDKTKPMASVTNAHTASTQAAPAAVTTPTLSSNQGTPTSPVKKFPTSTTKISPKEEERKDESPASWRLGLRKTGSYGALAEITASKEAQKEKDTAGVIRSASSPRLS | not
bound quantitatively to myosin | complex between GST-M21 and M110-(R714-I1004): complex purified on glutathione-Sepharose from GST-M21 mixed with bacterial extract expressing M110-(R714-I1004) (protein, left off: a dimerising Fc or GST; small tags and cut ends) GST-M21 (M21 part): MSSLFTRSKEYTRSRKSQSDSPPSSPSPIAKTLRHERLSRLEAATTPATSDSYSDRASSRSSAYSRRENRLAALSSRAEEESNRDYKKLYESALSENQKLKSKLQEAQLELADIKSKLEKAAQQKHEKTSDRSSMLEMEKREKRALERKLSEMEEEMKILTELKSDNQRLKDENGALIRVISKLSK M110-(R714-I1004): RSTRTREQENEEKEKEEKEKQDKEKQEEKKESETKDDDYRQRYSRTVEEPYHRYRPTSTSTSTSSTSSLSTSTSSLSSSSQLNRPNSLIGITSAYSRSGTKESEREGGKKEEEKEEDKSQPKSIRERRRPREKRRSTGVSFWTQDSDENEQEHQSDSEEGTNKKETQSDSLSRYDTGSLSVSSGDRYDSAQGRSGSQSYLEDRKPYCSRLEKEDSTDFKKLYEQILAENEKLKAQLHDTNMELTDLKLQLEKTTQRQERFADRSLLEMEKRVSGKSQYLLGGKKSSRKKDI | –
